From paper PMC5079754 (Biochimica et biophysica acta, 2016) come the findings set out here.

In data set [1] the target is Lmod2s1 (N-terminal residues 2-41 of leiomodin-2) (human) (UniProt Q6P5Q4). In words: NMR titration. The settings on record: scale: two-chained αTM1a_(1-14)Zip molecule per Lmod2s1.
For data set [2] the target is unchanged. In words: circular dichroism, thermal unfolding.
Data set [3] concerns the target Tmod1s1 peptide (residues 1-38 of tropomodulin-1) (Gallus gallus). In words: circular dichroism, thermal unfolding. (Circular dichroism is the unequal absorption of left and right circularly polarised light.)
Data set [4] addresses Tmod1s1 (res. 1–38 of Tmod1). In words: CD thermal unfolding at 222 nm of Tpm1.1 model peptide complexes with Tmod1s1. The class given is binding, Gallus gallus.
The conditions of data set [5]: peptide alone, versus WT αTM1a1-21Zip.

Chain of UniProt Q6P5Q4 (Q6P5Q4 2-41): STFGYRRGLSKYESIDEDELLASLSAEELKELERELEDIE

Turning to “αTM1a_(1-14)Zip, model Tpm1.1 peptide (from UniProt P09493-1 1-14)”, the stoichiometry N – broadly, the number of molecules, sites or subunits per partner or assembly – in data set [1] amounted to 1.
Regarding “αTM1a_(1-21)Zip, model Tpm1.1 peptide (from UniProt P09493-1 1-21)”, the figures for the Kd in data set [2] and in data set [3] were 370 nM and 1000 nM, respectively.
For “αTM1a_(1-21)Zip[K15N], model Tpm1.1 peptide with the dilated cardiomyopathy-associated mutation K15N (from UniProt P09493-1 1-21)” the same measures were 2310 nM and 3770 nM.
Regarding “H-GMDAIKKKMQMLKLDNENALDRNYHLENEVARLKKLVGER-OH [αTM1a1–21Zip[K15N]]”, the Kd (commonly the concentration at which binding is half-saturated) in data set [4] (read-out: Kd (30°C,µM), Tmod1s1, 30°C, Kd=exp(−ΔΔG/RT) from CD unfolding of the complex and of the Tpm1.1 peptide alone, 40 µM equimolar, 10 mM sodium phosphate pH 7.0, 100 mM NaCl, duplicates) came out at 3.77 ± 0.01 µM. In addition, the “fold reduction of affinity of Tmod1s1 by the K15N mutation” value in data set [4] (versus WT αTM1a1-21Zip, P<0.001, One Way ANOVA) was “four-fold”. Moreover, the “decrease in the Tm caused by the K15N mutation” value in data set [5] is ~ 6 °C.
